Test results from article PMC5548745, “Agonist-induced dimer dissociation as a macromolecular step in G protein-coupled receptor signaling” (Nature Communications, 2017).

B1: CB1-GFP: GFP-tagged cannabinoid CB1 receptor, negative control (protein)
chain: MKSILDGLADTTFRTITTDLLYVGSNDIQYEDIKGDMASKLGYFPQKFPLTSFRGSPFQEKMTAGDNSPLVPAGDTTNITEFYNKSLSSFKENEENIQCGENFMDMECFMILNPSQQLAIAVLSLTLGTFTVLENLLVLCVILHSRSLRCRPSYHFIGSLAVADLLGSVIFVYSFVDFHVFHRKDSPNVFLFKLGGVTASFTASVGSLFLTAIDRYISIHRPLAYKRIVTRPKAVVAFCLMWTIAIVIAVLPLLGWNCKKLQSVCSDIFPLIDETYLMFWIGVTSVLLLFIVYAYMYILWKAHSHAVRMIQRGTQKSIIIHTSEDGKVQVTRPDQARMDIRLAKTLVLILVVLIICWGPLLAIMVYDVFGKMNKLIKTVFAFCSMLCLLNSTVNPIIYALRSKDLRHAFRSMFPSCEGTAQPLDNSMGDSDCLHKHANNTASMHRAAESCIKSTVKIAKVTMSVSTDTSAEAL
modifications: left off: GFP, end not stated, kept
notes: GFP-tagged cannabinoid CB1 receptor, negative control
B2: FZD6 wt: wild-type FZD6 receptor construct (SNAP-tagged in ERK assays; GFP-tagged in b181) (protein)
chain: HSLFTCEPITVPRCMKMAYNMTFFPNLMGHYDQSIAAVEMEHFLPLANLECSPNIETFLCKAFVPTCIEQIHVVPPCRKLCEKVYSDCKKLIDTFGIRWPEELECDRLQYCDETVPVTFDPHTEFLGPQKKTEQVQRDIGFWCPRHLKTSGGQGYKFLGIDQCAPPCPNMYFKSDELEFAKSFIGTVSIFCLCATLFTFLTFLIDVRRFRYPERPIIYYSVCYSIVSLMYFIGFLLGDSTACNKADEKLELGDTVVLGSQNKACTVLFMLLYFFTMAGTVWWVILTITWFLAAGRKWSCEAIEQKAVWFHAVAWGTPGFLTVMLLAMNKVEGDNISGVCFVGLYDLDASRYFVLLPLCLCVFVGLSLLLAGIISLNHVRQVIQHDGRNQEKLKKFMIRIGVFSGLYLVPLVTLLGCYVYEQVNRITWEITWVSDHCRQYHIPCPYQAKAKARPELALFMIKYLMTLIVGISAVFWVGSKKTCTEWAGFFKRNRKRDPISESRRVLQESCEFFLKHNSKVKHKKKHYKPSSHKLKVISKSMGTSTGATANHGTSAVAITSHDYLGQETLTEIQTSPETSMREVKADGASTPRLREQDCGEPASPAASISRLSGEQVDGKGQAGSVSESARSEGRISPKSDITDTGLAQSNNLQVPSSSEPSSLKGSTSLLVHPVSGVRKEQGGGCHSDT
modifications: left off: V5 (on the crosslinked copy), N-terminal, kept | mCherry (on the crosslinked copy), C-terminal, kept | GFP (on the other, mobile copy), C-terminal, kept

How the values were obtained:
V5-FZD6-mCherry = experiment: dcFRAP of V5-FZD6-mCherry/CB1-GFP (negative control); assay type: cell-based, human; settings: HEK293
Procedure: For dual color FRAP experiments, cells grown in four compartment 35 mm glass bottom dishes were washed three times with BE buffer[19] (150 mM NaCl, 2.5 mM KCl, 10 mM HEPES, 12 mM glucose, 0.5 mM CaCl2, and 0.5 mM MgCl2). Then, the cells were incubated at RT for 30 min with biotin-conjugated goat polyclonal anti-V5 antibody (Bethyl) diluted 1:100 in BE buffer supplemented with 2.5% bovine serum albumin. For antibody-mediated cross-linking, avidin was added and incubated for 15 min and washed two times with BE buffer before the experiments were performed. In Fig. 4, dcFRAP experiments are presented that employ chemical surface crosslinking to visualize assembly of FZD6 with DVL or heterotrimeric G proteins according to previously published protocols. Live cell imaging experiments were carried out using a Zeiss 710 laser scanning microscope. Images were acquired using a 40×, 1.2 NA C-Apochromat objective and the 488 nm and the 561 nm laser lines were used to excite GFP and mCherry fluorophores, respectively. Photobleaching was performed by 100% laser illumination of a 1.80 × 1.80 µm area placed over the cell plasma membrane. Fluorescence was measured pre- and post-bleach using low-intensity illumination for a total time period of 100 s. Average pixel intensity was measured using the ZEN2013 software, corrected for background fluctuations and bleaching artifacts and normalized to pre-bleached intensity. The recovered mobile fraction (F m) was calculated as follows: F m = (I P–I 0)/(I I–I 0), where I I is the initial intensity measured prior to bleaching, I 0 is the immediate fluorescence intensity post-bleaching and I P is intensity value post-bleaching. The mobile fraction was defined by the average of the fluorescence recovery assessed between time 85–101 s (including pre-bleach measurements). We excluded experiments in which the extracellularly tagged receptors were not sufficiently immobilized after the crosslinking procedure (cutoff at 40% crosslinking-induced reduction in mobile fraction). […]

FZD6–FZD6 dimer = experiment: dcFRAP of V5-FZD6-mCherry/FZD6-GFP (FZD6 dimerization); assay type: cell-based, human; settings: HEK293, 85–101 s, mean ± s.e.m.
Procedure: For dual color FRAP experiments, cells grown in four compartment 35 mm glass bottom dishes were washed three times with BE buffer[19] (150 mM NaCl, 2.5 mM KCl, 10 mM HEPES, 12 mM glucose, 0.5 mM CaCl2, and 0.5 mM MgCl2). Then, the cells were incubated at RT for 30 min with biotin-conjugated goat polyclonal anti-V5 antibody (Bethyl) diluted 1:100 in BE buffer supplemented with 2.5% bovine serum albumin. For antibody-mediated cross-linking, avidin was added and incubated for 15 min and washed two times with BE buffer before the experiments were performed. In Fig. 4, dcFRAP experiments are presented that employ chemical surface crosslinking to visualize assembly of FZD6 with DVL or heterotrimeric G proteins according to previously published protocols. Live cell imaging experiments were carried out using a Zeiss 710 laser scanning microscope. Images were acquired using a 40×, 1.2 NA C-Apochromat objective and the 488 nm and the 561 nm laser lines were used to excite GFP and mCherry fluorophores, respectively. Photobleaching was performed by 100% laser illumination of a 1.80 × 1.80 µm area placed over the cell plasma membrane. Fluorescence was measured pre- and post-bleach using low-intensity illumination for a total time period of 100 s. Average pixel intensity was measured using the ZEN2013 software, corrected for background fluctuations and bleaching artifacts and normalized to pre-bleached intensity. The recovered mobile fraction (F m) was calculated as follows: F m = (I P–I 0)/(I I–I 0), where I I is the initial intensity measured prior to bleaching, I 0 is the immediate fluorescence intensity post-bleaching and I P is intensity value post-bleaching. The mobile fraction was defined by the average of the fluorescence recovery assessed between time 85–101 s (including pre-bleach measurements). We excluded experiments in which the extracellularly tagged receptors were not sufficiently immobilized after the crosslinking procedure (cutoff at 40% crosslinking-induced reduction in mobile fraction). Kinetic determination of mobile fractions of crosslinked V5-FZD6-mCherry and FZD6-GFP with WNT stimulation over time were performed in one cell culture well. Measurements for each time point were performed on separate cells.
Statistical and graphical analysis was performed using Graph Pad Prism 5 software. Data were analyzed by two-tailed t-test or one-way ANOVA with Fisher’s least significant difference post hoc analysis. Curve fitting of FRAP data was done with a two-phase association nonlinear function using the least square fit. Data for receptor titration in the presence of C59 and output to P-ERK1/2 in Fig. 6h was fit to a linear regression model. All experiments were repeated at least three times in independent experiments (not representing technical replicates). For single cell analysis (dcFRAP), the number of the individual ROIs obtained from several cells in at least three independent experiments is provided in the figure legends. Data from individual ROIs are summarized for data presentation providing the sum of independent observations. Significance levels are given as: *P < 0.05; **P < 0.01; ***P < 0.001. Data in FRAP curves and bar graphs (FRAP) are presented as mean ± s.e.m.

[1] = tested on: ERK1/2 phosphorylation in HEK293 cells; experiment: P-ERK1/2 immunoblot, HEK293 cells expressing SNAP-FZD6 constructs; assay type: cell-based
Procedure: Fig. 6 Relationship between FZD6 dimerization and phosphorylation of ERK1/2. a Mouse lung epithelial (MLE-12) cells were stimulated with WNT-5A (300 ng ml^−1) for 0, 2.5, 5, 10, 20 min. Cell lysates were analyzed for P-ERK1/2 and β-actin by immunoblotting. Additional information in Supplementary Fig. 6. b Bar graph summarizes three independent experiments. Densitometry data were normalized to the unstimulated control. […] Additional information in Supplementary Fig. 6. SNAP-FZD6 wt- and SNAP-FZD6 dimer mutant-induced ERK1/2 phosphorylation in the absence e and presence f of the porcupine inhibitor C59 (5 µM, overnight) were probed by immunoblotting for the SNAP-tag, P-ERK1/2, total ERK1/2 and β-actin. g The bar graph summarizes densitometry data of P-ERK1/2 normalized to total ERK1/2 from 6 different experiments. P = 0.0005; F (2, 15) = 13.08. ***P < 0.001. Empty vector transfection was used as mock. h Increasing amounts of plasmid of either SNAP-FZD6 wt or SNAP-FZD6 dimer mutant in the presence of C59 show a dose-dependent increase in P-ERK1/2 only with the dimer mutant. Data from three independent experiments for the dimer mutant were fit to a linear least-squares model (slope = 0.40 ± 0.10; R ^2 = 0.5943) and this line is shown superimposed. […] This dissociation-dependent activation can be evoked by agonist (WNT^high) or mutation of the dimer interface (symbolized by red stars). WNT^low conditions can be achieved in the presence of C59, which reduces FZD6 wt signaling
MLE-12 or HEK293 cells (ATCC) were plated in a 24- or 48-well plate at a density of 100,000 or 50,000 cells/well, respectively. After 24 h, cells were transfected using Lipofectamine 2000 according to the manufacturer’s instructions. Cells were stimulated (24 h post-transfection) with 300 ng ml^−1 recombinant carrier-free WNT-5A (CF WNT-5A; R&D Systems). Stimulation was stopped by the addition of lysis buffer (1% NP-40, 150 mM NaCl, 50 mM Tris/HCl pH 8). Lysates were sonicated and analyzed by 7.5 or 10% Mini-PROTEAN TGX precast polyacrylamide gels (Bio-Rad) and transferred to PVDF membranes using the Trans-Blot Turbo system (Bio-Rad). After blocking with 5% milk or BSA in TBS-T, membranes were incubated with primary antibodies in blocking buffer: mouse anti-β-actin (1:30,000; Sigma #A5441), rabbit anti-FZD6 (1:1000; NovusBio #NBP1-00830), rabbit anti-Phospho-p44/42 MAPK (ERK1/2) (Thr202/Tyr204) (1:1000; Cell Signaling Technology #9101 L), rabbit anti-p44/42 MAPK (ERK1/2) (1:1000; Cell Signaling Technology #9102), rabbit anti-Phospho-C-RAF (Ser338) (1:1000; Cell Signaling Technology #56A6), rabbit anti-SNAP tag (1:1000, New England Biolabs #P9310S), and rabbit anti-HA (1:4000, abcam #ab9110) overnight at 4 °C. Proteins were detected with horseradish peroxidase-conjugated secondary antibodies (goat anti-rabbit and goat anti-mouse (Pierce)) and Clarity Western ECL Blotting Substrate (Bio-Rad). All uncropped immunoblots can be found in the Supplementary Information.

Row | Molecule | CL-induced reduction in mobile fraction of CB1-GFP (V5-FZD6-mCherry; antibody-treated, co-expressing V5-FZD6-mCherry) | mobile fraction, CB1 experiment after CL (V5-FZD6-mCherry; with crosslinking, n=34) | mobile fraction, CB1 experiment before CL (V5-FZD6-mCherry; without crosslinking, n=29) | mobile fraction of FZD6-GFP before CL (FZD6–FZD6 dimer; basal, without biotinylated anti-V5/avidin crosslinking, N = 21 ROIs) | mobile fraction of FZD6-GFP after CL (FZD6–FZD6 dimer; with biotinylated anti-V5/avidin crosslinking, N = 31 ROIs) | P-ERK1/2 induction in presence of C59 ([1]; HEK293, C59 5 µM overnight) | effect of overexpression on basal P-ERK1/2 without C59 ([1]; serum-starved HEK293, no C59)
1 | B1 | did not exhibit a reduction in the mobile fraction of CB1-GFP upon crosslinking | 77,12 ± 2,601% | 78,48 ± 2,373% |  |  |  | 
2 | B2 |  |  |  | 80,78 ± 2,053% | 70,69 ± 2,416% | reduced to basal | increased basal P-ERK1/2
